# How the values were obtained:
# [1] = tested on: EphA2 having Myc-labeled C-terminal
# [2] = tested on: processing-resistant EphA2 mutant (EphA2 deleted at a site to be processed by MT1-MMP, FLAG-labeled C terminal)
# [3] = tested on: EphA2 (full-length type EphA2)
# E-cadherin = E-cadherin (UniProt P12830)
# Sequence of E-cadherin (P12830 155-882): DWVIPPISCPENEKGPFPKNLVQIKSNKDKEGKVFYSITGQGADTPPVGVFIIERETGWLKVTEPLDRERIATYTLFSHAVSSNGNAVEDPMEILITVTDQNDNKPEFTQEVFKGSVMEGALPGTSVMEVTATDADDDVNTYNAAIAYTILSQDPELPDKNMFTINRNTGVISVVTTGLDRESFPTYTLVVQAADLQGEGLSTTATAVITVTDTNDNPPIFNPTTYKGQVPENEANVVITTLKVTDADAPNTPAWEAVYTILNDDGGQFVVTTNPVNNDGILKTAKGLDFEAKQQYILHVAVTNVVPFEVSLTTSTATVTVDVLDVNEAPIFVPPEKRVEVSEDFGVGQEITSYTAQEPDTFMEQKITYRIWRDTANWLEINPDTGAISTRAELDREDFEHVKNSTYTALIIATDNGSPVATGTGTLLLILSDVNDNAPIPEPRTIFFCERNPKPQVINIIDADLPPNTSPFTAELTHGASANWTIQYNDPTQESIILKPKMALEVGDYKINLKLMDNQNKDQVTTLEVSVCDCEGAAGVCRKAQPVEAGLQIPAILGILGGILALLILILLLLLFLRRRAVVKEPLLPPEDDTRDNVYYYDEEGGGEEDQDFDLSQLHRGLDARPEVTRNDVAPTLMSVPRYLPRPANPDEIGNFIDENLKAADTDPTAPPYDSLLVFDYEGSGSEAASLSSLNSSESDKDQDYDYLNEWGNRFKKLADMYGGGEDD
Substance,"EphA2 processed fragment, western blotting [1]","processed state of EphA2, western blotting [2]","65-kDa and 60-kDa processed fragments of EphA2 after MT1-MMP knockdown, IP-western [3]","EphA2 processed fragments, western blotting with Myc antibody [1]","processing of E-cadherin, western blotting (E-cadherin)"
MT2-MMP,a processed fragment of EphA2 (small arrow) was detected only in the MT1-MMP-introduced cells,,,,
MT3-MMP,a processed fragment of EphA2 (small arrow) was detected only in the MT1-MMP-introduced cells,,,,
MT5-MMP,a processed fragment of EphA2 (small arrow) was detected only in the MT1-MMP-introduced cells,,,,
"membrane type-1 matrix metallproteinase (MT1-MMP), expressed in cells",,the mutant deleted at a cleavage site showed resistance against processing by MT1-MMP,"Due to MT1-MMP knockdown, the 65-kDa and 60-kDa processed fragments of EphA2 disappeared",full-length type EphA2 (large arrow) and respective EphA2 processed fragments (small arrow) having a molecular weight of 65 and 60 kDa were detected,presence or absence of MT1-MMP expression caused no change in the processing of E-cadherin
